Results as given in the DeepSol protein solubility set.

Test: soluble on expression in E. coli; label from the status in PepcDB or PDB records

Question: Which “soluble on expression in E. coli” value does the source give for “MMTSAFAPSEQSLVASPQDLPAVDVAIVGAGIVGLSLACALRNSGLAIALIEATPYRRENTKGQAYALHQVSRYFFEEIGVWDKLMPHVQPFEVVQLSDERFPLTVHFSPADLGTEALGYVGEHSAIAETLQSVLQSAGNVTFYCPWRVVTNEVHGDRAQLTLISGDPGEPKVAHLAARLVVAADGGKSPLRQQMGIEPKGWQYPQSCVVATLDVAHPQPVIAYERFWPTGPMGVLPLPRNRYRVVWTLPHPEAEAVAALDDRSFLATLQPYLDPQMAEITAVGDRFVFPAQFMQVNSYAADRFVVIGDAAHRCHPVGGQGLNLGLRDVWNLAQQILASPLEEIGDRRHLMHFHRQRWWQNVLTLAFTDFLNRLFSNTGWPLVAVRRCGLGLLCLLPPLKRLLLRFMAGLLLPLPGDREFPRGRLEHHHHHH” here?
Answer: Its value is “not soluble”.

Question: For “MMTTSLFNNDDLNQLESKGITPEEAMRQVEALRYGFPYPNIIAPASLENGIMRLDEDDKSAYLLEWDRYLNSPNCNVVKFVPASGAASRMFKDLYNFLDADYNEPTTDAEKAFFAHLTRFAFYDSLNETCLRNAWRTVPKLIASKEYKTVVENLLYPKGLNYGNLPKGLLLFHLYGKETRTPTEEHLAEGALYERSGTRQVKVHFTVSPEHIEEFKNNIDKRQRFLEDEYCIRYEVSFSVQDSSTDTLALTPEGELFRLENGELLFRPGGHGALIRNLQETNADIVFIKNIDNVVPDFLKCDTIIYKKLIAGVLVKAREHIFNYLQLLEKPKVVHAQLMEIVDFLRYNFCIEISNIDLMEDKDLLELLRRKLDRPIRVCGMVRNQGEPGGGPFIIREADGSSSLQILESTQIDMSDPQKRAIFEQGSYFNPVDLVCSLRDYKGEPFNLESFVNPKTAFISEKSKDGRKLLALERPGLWNGAMDDWNTIFIEVPISTFAPVKTVNDLLRPEHQPCQS”, which “soluble on expression in E. coli” value is on record?
Answer: Its value is “soluble”.

Question: Which “soluble on expression in E. coli” value does the source give for “MMVKSFTPPSSQSSVQDSGNSKLSVIEVVPENGIGALVSSSPTILRTTQAEPEILRYDPVEILAHYENKLLQVLRRTLAVLQPTLSYVFGLWLDNKRGVKVKNDRSRAIQLRELLTKLGPAYIKIGQALSTRPDLVPPVYLEELTRLQDQLPAFPNEIAYQFIEEELGAKPEEIYAEVSPEPIAAASLGQVYKGKLKTGEEVAIKVQRPDLREIITIDLYILRRLAGWVQRKVKRVRSDLVGILDELGDRIFEEMDYIHEGENAERFFELYGHIQDIYVPKIYWEYTNRRVLTMEWIKGIKLTQTSEIKELGIDARYLIEVGVQCSLRQLLEHGFFHADPHPGNLLATFDGKLAYLDFGMMSEIRPPQRYGLIEAIVHVVNRDFDSLAQDYVKLEFLSPETDLTPIIPAFGKVFANAQGASVAELNIKSITDDLSALMYEYPFRVPPYYALIIRSLVTLEGIAIYIDPNFKVLSEAYPYVSKRLLTDPADELRTSLRDLLFKMVNSGGIV” here?
Answer: The value was “not soluble”.

Question: Which “soluble on expression in E. coli” value does the source give for “MMYQDVVRSRRSVRDFMPDVEIPKEELMAIIEEAMFAPNSTNLNSWRFLIVTEKEQKEALYEVSMQQPAVKGAAAVIILLGDLTAYTVANADEISAKAVAQGTMTEEIRQGINENVSWYYDVSEEQKREWLMLDQGLVAMQLMLSAKDRGYDTVAMSGFETEAVRKLFNIEDHLVNGLIIPIGKAQTPGFETVRRDVSEVVTWLD” here?
Answer: The value was “not soluble”.

Question: For “MNANYVSKKPYIVTIACTKGGSAKSTNAANIGAFCADHGLRTLLIDTDTQPTLSSYYSLAKTAPGGIYEFLLQRDVEPSHIVSQTSIKNLDLIQSNDPSNNVSHMLRNAPDGSIRFSHLIKSINNYDVIVIDTRGTRDITVDMSVLAADILFCPILPQILSAKEFIRGTIGMYQDLQTFESFGFKLPPLKAIANGVDNTNDVKFVMQKLHTLFANTFDESKTLLDFSIPYHVAYREAVTYALPVYRHSAVEYPVMQQLCCLLLPQFKENFEKPMQRGLEHHHHHH”, which “soluble on expression in E. coli” value is on record?
Answer: Its value is “soluble”.

Question: With “MNATPASADDLIVIGKIYSVHGVRGEVKVYSFTDPIGNLLDYKTWTLRREGSVEKQVELVSGRLQSKFLVVKLKGLDDREEARLLSGYEICVPRNLFPDLDDGEYYWYQLEGLKVIDQLGQLLGKIDHLLETGSNDVMVVKPCAGSLDDRERLLPYTEQCVLAIDMAAGEMKVEWDADFLEHHHHHH” as the sequence, how does the “soluble on expression in E. coli” value read?
Answer: Its value is “soluble”.

Question: Which “soluble on expression in E. coli” value does the source give for “MNDHTAAIAAHFDQLAPNLDRWRRRNRTYYRDLEKLHRFWIPTGSRVLQVGSGLGDLLATVEPSFGIGIDVSPQAVAIAQQRHPQLQFHCLAAEELTPEAIGNPEPFDAIILTGVLSYLTDIQVVLEQLQAFCHPRTRLILGFHNFLWQPLLTAAEKVGQRSPQPPESWLGMQDVLNLLTLTGYEPIKQGLEHHHHHH” here?
Answer: The value was “soluble”.

Question: With “MNDSIDDDFPPEPRGRCYTWPMQQYIYQESSATIPHHHLNQHNNPYHPMHPHHQLPHMQQLPQPLLNLNMTTLTSSGSSVASSIGGGAQCSPCASGSSTAATNSSQQQQTVGQMLAASVPCSSSGMTLGMSLNLSQGGGPMPAKKKRCRKKPTDQLAQKKPNPWGEESYSDIIAKALESAPDGRLKLNEIYQWFSDNIPYFGERSSPEEAAGWKNSIRHNLSLHSRFMRIQNEGAGKSSWWVINPDAKPGRNPRRTRERSNTIETTTKAQLEKSRRGAKKRIKERALMGSLHSTLNGNSIAGSIQTISHDLYDDDSMQGAFDNVPSSFRPRTQSNLSIPGSSSRVSPAIGSDIYDDLEFPSWVGESVPAIPSDIVDRTDQMRIDATTHIGGVQIKQESKPIKTEPIAPPPSYHELNSVRGSCAQNPLLRNPIVPSTNFKPMPLPGAYGNYQNGGITPINWLSTSNSSPLPGIQSCGIVAAQHTVASSSALPIDLENLTLPDQPLMDTMDVDALIRHELSQAGGQHIHFDL” as the sequence, how does the “soluble on expression in E. coli” value read?
Answer: The value was “not soluble”.

Question: Which “soluble on expression in E. coli” value does the source give for “MNDSSVIYRAIVTSKFRTEKMLNFYNSIGSGPDKNTIFITFGRSEPWSSNENEVGFAPPYPTDSVLGVTDMWTHMMGTVKVLPSMLDAVIPRRDWGDTRYPDPYTFRINDIVVCNSAPYNATESGAGWLVYRCLDVPDTGMCSIASLTDKDECLKLGGKWTPSARSMTPPEGRGDAEGTIEPGDGYVWEYLFEIPPDVSINRCTNEYIVVPWPEELKEDPTRWGYEDNLTWQQDDFGLIYRVKANTIRFKAYLDSVYFPEAALPGNKGFRQISIITNPLEAKAHPNDPNVKAEKDYYDPEDLMRHSGEMIYMENRPPIIMAMDQTEEINILFTF” here?
Answer: The value was “soluble”.

Question: For “MNDVDVLVVGAGALGLACAARLAEAGHGVLVAERERLVGSHTSSRNSEVIHAGLYYPPGSLKADLCLEGRERLYAWCARHGVGHRRIGKLLVAVEENERERLQALAANARACGVDDLMPLDGTTLRALEPQVRGVAALLSPSTGIIDSHAYLQSLQAVAERHGAQLALDTRVDRLERHAGGWRAEGQSVGEAFRLRAGWVVNAGGLFAQALAQRTEGLDPRLVPALHLCQGRYFSYSGRSPFRHLVYPMPEARTAGLGIHATLDLGGQLRFGPDVNYVDNLDYRVDESLRPAFAQVISRYFPGIDPRRLAAGYAGIRPKLGGPGEPAADFIIQTPAEHGLPGLVNLFGIESPGLTASLALAERVARALLEHHHHHH”, which “soluble on expression in E. coli” value is on record?
Answer: The value was “not soluble”.

Question: With “MNDYSTTRDRVEHYFDRTATHTWERLTSSAPVSRIRQTVREGRDTMRAKMLWRLPKDLTGLRVLDAGCGAGQMTAELAARGAQVMAVDISPQLVEIARKRLPPEHQDRVTFASGDMLADDLGRFDYVVAMDSLIYYTDADIAAALDRLGARTRHSVVFTVAPRTPFLMAFWTMGKLFPRSDRSPVMIPHPFQPLNEATGGRLVKVGRVSRGFYISECLEFRPLEHHHHHH” as the sequence, how does the “soluble on expression in E. coli” value read?
Answer: The value was “not soluble”.

Question: For “MNEFEIGLMSYLGREKLEKLGKVKVGIAGAGGLGSNCALHLVRSGFKNLKIVDFDVVEPSNLNRQFFFLDQLGRPKVLALKENLARINPDVMIEAIQQKVDRNNAKQLFDDCDAVVEAFDKVECKTMMAEAFASSGKFFVCASGLAGWGNSDEIRIRKVHDRFYIVGDFVTGVKEGIPPISPRVNIAAAKQADLILSFFLDDADNTVNVNCQEGLEHHHHHH”, which “soluble on expression in E. coli” value is on record?
Answer: Its value is “soluble”.

Question: Which “soluble on expression in E. coli” value does the source give for “MNEFSILCRVLGSLFYRQPQDPLLVPLFTLIREGKLAANWPLEQDDMLARLQKSCDITQISTDYNALFVGEECAVAPYRSAWVEGAEESEVRAFLTSRGMPLADTPADHIGTLLLAASWLEDQSAEDESEALETLFADYLLPWCNTFLGKVEAHAVTPFWRTLAPLTRDAIGAMWDELQEEDEE” here?
Answer: The value was “not soluble”.

Question: With “MNEKHPGPLVVSGKLSDGERMKSESNFLRGTIAEDLNNGLTGGFSGDNFLLIRFHGMYQQDDRDIRAERAEQKLEPRHAMMLRCRLPGGIITPQQWLGIDKFAADNTLYGSIRITNRQTFQFHGILKGNVKPAHQLLNELGLDALATANDVNRNVLCTSNPVESALHQEAYEWAKKISEHLLPRTRAYAEIWLDAEKVATTDEEPILGATYLPRKFKTTVVIPPQNDVDLHANDLNFVAVADKGKLIGFNVLVGGGLSIAHGDKNTYPRKASEFGYIPLKHTLAIAEAVVTTQRDWGNRTDRKNAKTKYTLERVGVETFKAEVEKRAGVSFSAIKPYQFIGRGDRIGWVKGVDKKWHLTLFVENGRLLDYPGRSLKTGVAEIAKIHQGDFRLTANQNLIVAGVPEKDKARIEALAREHGLMDDNVTSQRENSMACVSFPTCPLAMAEAERFLPEFVTRVEGILQQHGLADEHIVLRVTGCPNGCGRALLAEVGLVGKAVGRYNLHLGGNREGTRIPRMYRENITADEILLITDQLVGRWAKERHVDEGFGDFVIRAGVIAPVIDSARDFYDVQEAM” as the sequence, how does the “soluble on expression in E. coli” value read?
Answer: Its value is “not soluble”.

Question: For “MNELQFQQAAGISAGLSARWFPHIDAAMSEFGITAPLDQAMFIAQTGHESAGFTVLRESFNYSVEALKKTFGKRLTPYQCEMLGRIDGRQVAHQPQIANLVYGGRMGNKDAGDGWKYRGRGLIQITGLENYTRCGVALKLDLVANPGQLELERHAARSAAWFFVTKGCLKYSGDLVRVTQIINGGQNGFGDRRERFEKAKSVLV”, which “soluble on expression in E. coli” value is on record?
Answer: Its value is “not soluble”.

Question: For “MNEYKKEIKISVRNLVEFVLRTGDIDSSFTGSSRAVEGTRLHKKIQKTQGKEYSPEVFLKTTVEFDDFFLTVEGRADGVINEDGCFIIDEIKTTTAPLELIDEFYNPLHWAQAKCYAYIHALNENLEKIKIRLTYCHLETEEIKYLVSEFDFAELSRFFEELVEKYYVWAKLACDWQVKRDCSIKVLEFPFEKYRKGQRKLAVAVYKTVTEGKKLYVKAPTGIGKTISTLFPAVKAIGEGHASKIFYLTAKTVTGGVAKEAFAKMRQKGLLFKTVTLTAKEKICFMEKAVCKPEKCEYAKGHFDRVNEAIMDILTNEDEIKREVIEEYAKAHRVCPFELALDLTIWADAVICDYNYVFDPRVYLKRFFSDAGGDYIFLVDEAHNLVDRAREMFSAQLSKKSFLELKKAMKEESPKISKTLQKLNTFMLGMKKLCGDNDYFVSKEEQSEIYLLLRRLIGECEEYLTDRAKNGIENEDLLQLYFDALMYVRIAEFYDDRYVTFVEKSDNDVRIKLFCIDPSHLLSEALKRGKAAVFFSATLLPLSYFKEVLGGGPDDYTMCLDSPFEVNNRCLMIADRISTRYQDRGKSCDEVVQCIKSIVCAKKGNYIAFFPSYQYMNMIYELFEKECGDIKLYVQSSSMTEKEREDFLERFKADPQETVLGFCVLGGIFSEGIDLRDDRLIGAIIVGVGLPQICIERDIIRDYYQNKNRLGFEYSYMYPGMNKVMQAAGRVIRSENDKGVILLIDDRFTNPSYLALFPNEWFPYIRVTGNNISEHVKKFWSRHGA”, which “soluble on expression in E. coli” value is on record?
Answer: Its value is “soluble”.

Question: With “MNFLKKEPFKIFSMIYLLLDTITNRAGTERAVINLANNLHANGHRVSLVSVCTKEGEPSFQVEKGIEVHHLGIRLYGNALARKTVYFKAYRRIKALYKKREPVLLIGTNIFINTILSQISNRGRIFTIGCEHISYDIARPITKRIRGFLYSGLDAVVALTKRDQQSFEAILRGRSKAYVIPNQVSFTTVQRDATTHKQMLAIGRLTYQKGFEFMIEDASRVLRERPDWKLIIVGDGENESMLRKEIASRNMESQIEIHPSTPEIRKYYESSAIYLMTSRFEGLPMVLLEAEAYALPIISYDCPTGPRELIENGRNGFLVPMEAHEDFADKLRLLMDDETLRKKMGQESELMVKSYSPANIYECWKKLFVEIGYMN” as the sequence, how does the “soluble on expression in E. coli” value read?
Answer: The value was “soluble”.
